Data set [1] addresses T1, Rv0348 (MosR) (Mycobacterium tuberculosis H37Rv) (UniProt O06299).
T1 sequence: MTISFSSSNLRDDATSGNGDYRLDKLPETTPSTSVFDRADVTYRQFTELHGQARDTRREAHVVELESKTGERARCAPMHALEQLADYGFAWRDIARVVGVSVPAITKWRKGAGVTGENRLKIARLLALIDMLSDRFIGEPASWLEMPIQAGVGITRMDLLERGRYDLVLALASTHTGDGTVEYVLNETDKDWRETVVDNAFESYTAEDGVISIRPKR
Kind of data set: EMSA.

Data set [2] addresses T2, Phosphorylated DevR (DevR~P) (Mycobacterium tuberculosis, UniProt P9WMF9 1-217, phosphorylated using 50 mM acetyl phosphate (residue not stated)).
T2 construct: DevR, two-component response regulator of Mycobacterium tuberculosis (devR of the Rv3134c-devR-devS operon), phosphorylated in vitro with acetyl phosphate; also called His6-DevR phosphorylated
Kind of data set: native gel or EMSA. Particulars: both partners purified.

T2 sequence (P9WMF9 whole entry): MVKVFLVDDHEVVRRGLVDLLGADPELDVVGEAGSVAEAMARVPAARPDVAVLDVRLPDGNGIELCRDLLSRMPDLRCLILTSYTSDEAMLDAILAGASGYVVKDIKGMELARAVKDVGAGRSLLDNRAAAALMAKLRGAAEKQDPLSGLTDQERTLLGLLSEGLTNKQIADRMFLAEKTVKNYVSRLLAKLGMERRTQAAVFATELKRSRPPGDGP

Consider “TTACTGGCGGGGACCGCTATCTCCCAGGGGCGTTGGTCCCCACCTGAGGGCCGTTAGTCCTTATCGACCGATGACAGACGCAACCCGTCAGGGCGAGAATGAATCTCACCTATCGCACGGGTGGCTCGTCCAGGTCCACAACCATCGCCCAGCTTTTCACAGCAAAGTCCCAGAAATGGCTTACAGTTGCCGACAGCTGCCGAACCAGCGGCCGTC (double strand) [Rv3134c promoter fragment (devR operon promoter)]”, for which the binding entry in data set [1] was “no binding”.

B1: Rv0348-His6 (natural protein)
chain: T1 sequence
notes: also called mosR; not shown: His6, C-terminal, kept
On to B1, for which the binding result in data set [2] was “binds”.

(Values after PMC6868718, “Multiple transcription factors co-regulate the Mycobacterium tuberculosis adaptation response to vitamin C” (BMC Genomics, 2019).)
